Our source for the LDL uptake assay (DiI-LDL, HepG2 cells) (% more function than wildtype PCSK9) values is patent publication US20120129237A1.

The assay addresses LDLR (LDL receptor) of HepG2 cells (UniProt P01130). As to the kind of experiment: cell-based or functional assay.

Consider “PCSK9c polypeptide (novel PCSK9 variant) (from UniProt Q8NBP7 175-692) (enzyme)”, for which the LDL uptake assay (DiI-LDL, HepG2 cells) (% more function than wildtype PCSK9) was 50.
